The DeepSol protein solubility set

Assay: soluble on expression in E. coli; label from the status in PepcDB or PDB records

Sequence	soluble on expression in E. coli
MIYDVFLNFSGEDVRGTFLNHFFKELERKSIIAFKDNESERSQNLSPELTHAIRESRITVVVFSKNYSSSTWCLNELLQVYECYQSMDLPVIPIFYGLDPSHVRKQTGEFGKNFEKTCRNETEACVYQWRRALCDVSNFLGYHSPNWANEATMIEQVANDVLFKLNLTPSSDFSEFVGIEDHIAAMNSVDKR	soluble
LSGYAQAGFSSLWLPTASSEKENYNTFDVKRITLRANVAITDKWSVTFIPDFAKRYTNLELYTSFRTCSGFGIRLGQFKTAFSIENQLSPTTIETISCGSMATNFLAAGNGSDPLMGAQSGRDVGLEIYGDLFNDILGYRLGVLNGQGINTLDGSKHKTLEGSLTLRPIECLSFTGSFMSGKTAALNDAPIKINSKQIMAGDLYDRSRWSVGGMFRSKYLDLRSEYLEGKDDDMISKGFYVTGVGRLFKNLDIIGSYDFMDLYERQQVHNITAGLQYWFFPKCRLQAQYVLSNPKGEYNNTHALLTQVQVAF	not soluble
MAITEFDTSLPSIRQLQNLIKQAAPVEIKLVTGDAITGRVLWQDPTCVCIADENSRQTTIWKQAIAYLQPKG	soluble
MSNDLTQITQRSLDEQVIGNLNRLQEQGLEMPPGYSPQNALKSAFFELTNNSGGNLLQLAANNPETKTSISNALLDMVIQGLSPAKKQCYFIKYGNKVQLMRSYFGTMAVLDRVTGGADITPVVVREGDVFEIAMDGPDLVVAKHETAFENLDNDIKAAYVVIKLANGKEVTTVMTKKQIDKSWSKAKTKNVQNDFPEEMAKRTVINRAAKYLINTSNDNDLFVQAAKDTLENEFERKDVTPEREEQAAVLEEKLFSNNIKAVDQENENERITRVADVPEQPDIEQAKPIEKDNLTKVADQILEEPVQETLDVMAGYETNQKESEADVSTIEEDDYPF	not soluble
SATTVTLEKCGHNKGYKGLDNCRFCPGSQCCVEDGPESIDSIIDMDAVCKRVTTLGLDVSVTISQDAGRYLCDFTYYTSLYQSHGRSAFVHVPPLGKPYNADQLGRALRAIIEEMLDLLEQSEGKINYCHKH	soluble
MSLASLIGLAVCTGNAFSPALAAEAKQPNLVIIMADDLGYGDLATYGHQIVKTPNIDRLAQEGVKFTDYYAPAPLSSPSRAGLLTGRMPFRTGIRSWIPSGKDVALGRNELTIANLLKAQGYDTAMMGKLHLNAGGDRTDQPQAQDMGFDYSLANTAGFVTDATLDNAKERPRYGMVYPTGWLRNGQPTPRADKMSGEYVSSEVVNWLDNKKDSKPFFLYVAFTEVHSPLASPKKYLDMYSQYMSAYQKQHPDLFYGDWADKPWRGVGEYYANISYLDAQVGKVLDKIKAMGEEDNTIVIFTSDNGPVTREARKVYELNLAGETDGLRGRKDNLWEGGIRVPAIIKYGKHLPQGMVSDTPVYGLDWMPTLAKMMNFKLPTDRTFDGESLVPVLEQKALKREKPLIFGIDMPFQDDPTDEWAIRDGDWKMIIDRNNKPKYLYNLKSDRYETLNLIGKKPDIEKQMYGKFLKYKTDIDNEGHHHHHH	not soluble
GAMATGSRIGGGIDVPVPRHSVGVVIGRSGEMIKKIQNDAGVRIQFKQDDGTGPEKIAHIMGPPDRCEHAARIINDLLQSLRSGPPGPPGGPGMPPGGRGRGRGQG	soluble
MSLVKIKIFVNELLTDVEENTTAYKVRDSYNNKCDVLVLNGYPIKTDMTLCENDKLTLIQKGVKPSLDELESLLIARHTPNIHNKLKKGKVAILGLGGLGSNIAISLARIGVGELLLIDYDVVEPSNLNRQQYFIDDIGKLKTDAMIENIKKINPFIKLNKRDIFLNKNNMDTIKDSDLIIEAFDDASCKAQVCNYVLINLKDKYLIASSGMAGYYDSNIITTKKIKDRFYICGDFVNEAKFGEGLMAPRVAICANHMANLATQILIDMEGHHHHHH	soluble
MSLHGVPFGTVPPMGTIGLIAAMPDEIRPFLRLASPAARLHGGRFPIWRLRVGNDDIVLVESGMGIDRATAATDALVAAASPVAILSFGFGGAALPGLKVGDLAVGMTSWFAGTEGIVLRRGIDRNLAEKLAEELNRICNGVTRGEIITSARILKKGDLAHSLPNGISSPILDMETAAVAEAAHRRGIPIVALRAISDDAEEELSFSLDEFTDDDMAIRPRKVLATIARKPWIIPQLLRLARNSRIAGKRLAQGVLATAEFLSRGEGHHHHHH	not soluble
MSSPPPARSGFYRQEVTKTAWEVRAVYRDLQPVGSGAYGAVCSAVDGRTGAKVAIKKLYRPFQSELFAKRAYRELRLLKHMRHENVIGLLDVFTPDETLDDFTDFYLVMPFMGTDLGKLMKHEKLGEDRIQFLVYQMLKGLRYIHAAGIIHRDLKPGNLAVNEDCELKILDFGLARQADSEMTGYVVTRWYRAPEVILNWMRYTQTVDIWSVGCIMAEMITGKTLFKGSDHLDQLKEIMKVTGTPPAEFVQRLQSDEAKNYMKGLPELEKKDFASILTNASPLAVNLLEKMLVLDAEQRVTAGEALAHPYFESLHDTEDEPQVQKYDDSFDDVDRTLDEWKRVTYKEVLSFKPPRQLGARVSKETPL	soluble
GPGSMPSGVTHSLSLSSLPVVSLLPRWHKAEVVSHRQLTPTATSAQERAKRGKTSVLAAANTAAMTATESKGFAELYHQLLQDGVQLQKELEAYYLRQEGYIRKRVAVLDEMQENIADERRCLELQHQECRAQISTTRKQAASFLSDERKVSQAVRHAQPFLAAQEAEIDKRLDELQREKEREDTALLNVMARQEALGKQEALLACRERQRFLEEQDLQKALIEMRSLNREMEERRKSLLRKHGTVADWDRKLESRERELLVCQDQLRENLKALEQEENALGIHPAQRTAVAPAVSQRTVMDDHDMSIEHDSACEEIDYED	not soluble
MCKMEITDLIKGMESANVSDIYIFLHEDGPVAFDASAAHLLCYFPEMEMESVFCSDSKRHRIIQGFALEPVLERLAQYPCLVDDDCIRIMGVL	not soluble
MSQQVTMSFSVVPQAKTKDVYSVVDKAIEVVQQSGVRYEVGAMETTLEGELDVLLDVVKRAQQACVDAGAEEVITSIKIHYRPSTGVTIDEKVWKYRDEYAKPEAI	soluble
NNTPVTNKLKAYGDANFNFTNNSIADAEKQVQEAYKGLLNLNEKNASDKLLVEDNTAATVGNLRKLGWVLSSKNGTRNEKSQQVKHADEVLFEGKGGVQVTSTSENGKHTITFALA	soluble
MKSLGADLDKALGRLSGGLYIITAKKGDVSSAMLASWVNQASFKPLGFSIAVAKDRAIESLMQVGDRFVLNVLEEGNYQPLMRHFLKRFAPGADRFEGVKTQPAENGAPILGDALAYMECEVVSRMDCGDHWAVYSTVYAGRVSKSEALTAVHHRKVGNHYLEHHHHHH	not soluble
APWFLEYSKSECHFYNGTQRVRLLVRYFYNLEENLRFDSDVGEFRAVTELGRPDAENWNSQPEFLEQKRAEVDTVCRHNYEIFDNFLVPRRVEPTVTVYPTKTQPLEHHNLLVCSVSDFYPGNIEVRWFRNGKEEKTGIVSTGLVRNGDWTFQTLVMLETVPQSGEVYTCQVEHPSLTDPVTVEW	soluble
SLFQNFINKFVGEKQMDLIKDCNTFLAFVTDKEQTKKKLYKNNMCKNRFCPMCAWRRARKDALGLSLMMQYIKQEEKKEFIFLTLTTPNVKAEELEDEIKKYNLSFGKLVKRKNVKAMMKGYVRKLEITYNKQRDDFNPHFHVLIAVNKSYFKDSKVYISQKEWLEMWRDVTGMPEITQVHVQKIKQNNNKELYEMAKYSGKDSDYLINQKIFDAYYKSLKGKQILVYSGLFKEARKKLKNGELDYLKEIDPTEYLYQIYYIWNQKEYLASELHELTEEEKRKINHQTINEIEEEK	soluble
MKLTDRLLKIASLVSDGKKIADIGTDHGYIPVYLLKEGKVPFAVLADVNKGPLDNAHKEVIQNNLLDKVDLRLGSGIEILEIGEVEEVIIAGMGGILISELLEAKKEVAHNVEKLILQPMQAQEELRYYLLNNGYEILEEVLVREDFRIYEIIVAKYTGKNTIIEDEIYYEVGIKLLENKDSLFNDFIEKKIKTYSSIVNKLEGKNGEAIDKKRKESEVAIKKLENLIK	not soluble
MSSFTHFNEQGRAKMVDITHKEDTVRVAVAQTSVTVSREIYEKMTSNAIEKGDVLAVAQVAGVMAAKKTADLIPMCHPLMLKGVDIAFAWENDGEAHKLVITATVKTKGSTGVEMEALTAASVCALTVYDMCKALDKGMVIGPTYLVEKTGGKSGHYRRKTD	soluble
MTMQFKIPTVLRSQEIIDKSFSRASKIEEPYFPDKVERIKKEVQDRISAIESISCSHLDKLVKRFPSIERMHPFYRSLIDLMFDVDQYKIALSKVDATSANIKRISTEYIRKLRPVKDVGNANQIMRAYYGRFASLIEDLNETLLFLGRCRDYIRKLPEVRTDLKTYIIAGMPNVGKSSLLASLTTAKPKIASYPFTTKNVIIGYNESGSERIQFIDTPGILDRDFSEMNEIEKNAILAIRFIEGKIIFLFDYSTESLYTREQQEHLYEQIKNNINPNIIRVQTKLDISTEKVENIAISVNIESGLEPLRKIIFDGGVIDVRGRNLEHHHHHH	soluble
MGSDKIHHHHHHMGFVSTTFDVLIIGAGPSGASAAVHAARTGLQTLLIDASSFPRDKTCGDGLTPRAIHQLELLGVADQVTGDYFNKGLKLHGFGGSVEAPWPETYFTNKGSAMSRMEFDDLLFRLAKSHEEVTTWENASAQDPILRGNFLEGVVINHAGQEKTVKAKHVIIADGVRSPFGKKLGRQWQRDEVYGIAARAYCETPLSDEPWIHSHVELRDEDGVVQPGYGWIFPLGNGTVNLGCGALSTDTRPAKINTKKLLSFYAGQRRKAWQLGPEHDVASALLPMGGAVSNVAGANWMLIGDSAACVNPLNGEGIDYGLETAAMAVDTLVENPKRDLTLVWPHRLRDAYGETFMLARTAARLLTYPQFLPMAGPLAFRGPLQKAIMPAAARLMGNLITEEDKDLLARGWQAAGSAISWARKGSPLWDSTSSLV	not soluble
MLERILSRENLIQALERVEKNKGSYGVDEMDVKSLRLHLHENWTSIRNEIIEGSYFPKPVRRVEIPKPNGGVRKLGIPTVMDRFLQQAIAQILTQLYDPTFSERSFGFRPHRRGHNAVRQAKQWMKEGYRWVVDIDLEKFFDKVNHDRLMRKLSSRIQDPRVLQLIRRYLQTGVMERGLVSPNTEGTPQGGPLSPLLSNIVLDELDNELEKRGLKFVRYADDCNIYVRSKRAGLRIMESVTSFIENRLKLKVNREKSAVDRPWNRKFLGFSFTRGKDPKMRVSKESVKRLKQRIRELTSRRHSMKMSDRLRRLNRYLTGWLGYYQVVDTPSILAQIDAWIRRRLRMIRWKEWKTTSARQKNLVRLGIKKAKAWQWANSRKGYWRVAHSPIMDYALNSEYWKGQGLMSLAERYQTRRWTLEHHHHHH	soluble
MRQHKTKYLHQYELQALLNELNLNNEVNWDYFILLIAKTGIRFAEALGVTPDDFDFAHQTLSISKTWDYKSNKSDFAPTKNNSSVRKVPLDWQTVIQFSQLTKKLPEDQPIFVQAKVYNDTVNHYLERLCKHASIPVISVHGLRHTHASLLLYAGVSIASVARRLGHSNMTTTQQTYLHIIQELENQDNDKVMKHLASLILEHHHHHH	soluble
MSLNTSLLILLVASFSSLVLSQNDSKKGGLPKKVHFSFGPAYLRNLTKEEKQQYYAIFGNKDLTIKQQEDQRLAFAEKHGFGQAIKDDIKLKAGNHELIRKERPEIIKNLLAAHEATMKIFDNKDQTLSQREAAVNALKKKYPHAPSTLYYISRLITGNGKHQTPFIKHH	not soluble
